# Data: IntAct's records for PubMed 22184064
# Biological target: CCNY, Q8ND76-1
# Sequence (Q8ND76 whole entry): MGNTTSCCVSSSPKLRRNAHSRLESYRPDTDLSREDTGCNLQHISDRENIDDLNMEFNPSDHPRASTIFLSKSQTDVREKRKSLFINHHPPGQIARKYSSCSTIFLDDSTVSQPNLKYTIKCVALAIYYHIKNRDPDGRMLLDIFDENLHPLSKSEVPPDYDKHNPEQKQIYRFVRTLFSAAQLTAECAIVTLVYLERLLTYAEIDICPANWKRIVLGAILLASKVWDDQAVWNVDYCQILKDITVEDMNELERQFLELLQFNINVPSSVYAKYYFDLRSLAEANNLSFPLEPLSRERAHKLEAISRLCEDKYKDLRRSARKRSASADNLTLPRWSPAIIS
# Sequence of Cyclin-dependent kinase 16 (Homo sapiens), Q00536 S119A (Q00536 whole entry S119A): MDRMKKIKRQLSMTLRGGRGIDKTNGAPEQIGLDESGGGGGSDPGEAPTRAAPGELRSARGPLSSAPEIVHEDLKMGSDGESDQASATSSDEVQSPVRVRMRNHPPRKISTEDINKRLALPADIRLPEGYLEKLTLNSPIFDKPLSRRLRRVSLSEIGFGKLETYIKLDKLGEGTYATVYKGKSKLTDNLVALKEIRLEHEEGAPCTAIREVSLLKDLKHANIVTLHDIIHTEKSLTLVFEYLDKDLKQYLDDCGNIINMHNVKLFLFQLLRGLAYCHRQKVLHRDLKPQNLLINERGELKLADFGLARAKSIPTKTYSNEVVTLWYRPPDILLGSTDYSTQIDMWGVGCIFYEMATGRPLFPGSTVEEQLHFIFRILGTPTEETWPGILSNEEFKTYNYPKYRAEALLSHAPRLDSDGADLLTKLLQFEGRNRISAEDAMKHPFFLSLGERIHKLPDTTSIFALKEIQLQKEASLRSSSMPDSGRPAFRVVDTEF
# Sequence of Cyclin-dependent kinase 16 (Homo sapiens), Q00536 S153A (Q00536 whole entry S153A): as the sequence (Q00536 whole entry S119A) above, with A119S, S153A counted along it
# Sequence of Cyclin-dependent kinase 16 (Homo sapiens), Q00536 G158D (Q00536 whole entry G158D): as the sequence (Q00536 whole entry S119A) above, with A119S, G158D counted along it
# Sequence of Cyclin-dependent kinase 16 (Homo sapiens), Q00536 S153D (Q00536 whole entry S153D): as the sequence (Q00536 whole entry S119A) above, with A119S, S153D counted along it
# Sequence of Cyclin-dependent kinase 16 (Homo sapiens), Q00536 I209T (Q00536 whole entry I209T): as the sequence (Q00536 whole entry S119A) above, with A119S, I209T counted along it
# Sequence of Cyclin-dependent kinase 16 (Homo sapiens), Q00536 K216E (Q00536 whole entry K216E): as the sequence (Q00536 whole entry S119A) above, with A119S, K216E counted along it
row,Substance,effect of a mutation on the interaction
1,"Cyclin-dependent kinase 16 (Homo sapiens), Q00536 K216E",disrupting interaction strength
2,"Cyclin-dependent kinase 16 (Homo sapiens), Q00536 S119A",disrupting interaction strength
3,"Cyclin-dependent kinase 16 (Homo sapiens), Q00536 S153A",increasing interaction strength
4,"Cyclin-dependent kinase 16 (Homo sapiens), Q00536 I209T",disrupting interaction strength
5,"Cyclin-dependent kinase 16 (Homo sapiens), Q00536 G158D",disrupting interaction strength
6,"Cyclin-dependent kinase 16 (Homo sapiens), Q00536 S153D",disrupting interaction strength
